Consider 1 protein from US20100160262.

This data set concerns the target enzymatically [3H] acetylated histone H3 peptide (amino acids 1-24), P68431.

B1: human SIRT1 with a C-terminal FLAG tag (protein)
chain: MADEAALALQPGGSPSAAGADREAASSPAGEPLRKRPRRDGPGLERSPGEPGGAAPEREVPAAARGCPGAAAAALWREAEAEAAAAGGEQEAQATAAAGEGDNGPGLQGPSREPPLADNLYDEDDDDEGEEEEEAAAAAIGYRDNLLFGDEIITNGFHSCESDEEDRASHASSSDWTPRPRIGPYTFVQQHLMIGTDPRTILKDLLPETIPPPELDDMTLWQIVINILSEPPKRKKRKDINTIEDAVKLLQECKKIIVLTGAGVSVSCGIPDFRSRDGIYARLAVDFPDLPDPQAMFDIEYFRKDPRPFFKFAKEIYPGQFQPSLCHKFIALSDKEGKLLRNYTQNIDTLEQVAGIQRIIQCHGSFATASCLICKYKVDCEAVRGDIFNQVVPRCPRCPADEPLAIMKPEIVFFGENLPEQFHRAMKYDKDEVDLLIVIGSSLKVRPVALIPSSIPHEVPQILINREPLPHLHFDVELLGDCDVIINELCHRLGGEYAKLCCNPVKLSEITEKPPRTQKELAYLSELPPTPLHVSEDSSSPERTSPPDSSVIVTLLDQAAKSNDDLDVSESKGCMEEKPQEVQTSRNVESIAEQMENPDLKNVGSSTGEKNERTSVAGTVRKCWPNRVAKEQISRRLDGNQYLFLPPNRYIFHGAEVYSDSEDDVLSSSSCGSNSDSGTCQSPSLEEPMEDESEIEEFYNGLEDEPDVPERAGGAGFGTDGDDQEAINEAISVKQEVTDMNYPSNKS
B1: the “standard histone deacetylase assay (radioactive, H3 peptide substrate)” value is “These enzymes also deacetylate histones as determined in a standard histone deacetylase assay”.
